Laboratory results as given in patent US20130005646A1 (Novo Nordisk, published 2013).
Starred links: 1 amine or outer side, 2 acyl side, 3 side chain; linkers in the order of their positions; H or OH if unused. Positions of bridges follow the written chain, without caps; N, C: chain ends. *: point of attachment. C20 diacid = O=C(O)CCCCCCCCCCCCCCCCCCC(=O)*; C18 diacid = O=C(O)CCCCCCCCCCCCCCCCC(=O)*; γGlu = O=C(O)[C@H](CCC(=O)[*:2])N[*:1]

Tests used:
[1] = biological target: T1, human amylin 3(a) receptor (human calcitonin receptor + RAMP-3) (human, UniProt P30988 25-474; O60896 24-148); assay: cell-based or functional assay
T1 sequence (looked up) 1: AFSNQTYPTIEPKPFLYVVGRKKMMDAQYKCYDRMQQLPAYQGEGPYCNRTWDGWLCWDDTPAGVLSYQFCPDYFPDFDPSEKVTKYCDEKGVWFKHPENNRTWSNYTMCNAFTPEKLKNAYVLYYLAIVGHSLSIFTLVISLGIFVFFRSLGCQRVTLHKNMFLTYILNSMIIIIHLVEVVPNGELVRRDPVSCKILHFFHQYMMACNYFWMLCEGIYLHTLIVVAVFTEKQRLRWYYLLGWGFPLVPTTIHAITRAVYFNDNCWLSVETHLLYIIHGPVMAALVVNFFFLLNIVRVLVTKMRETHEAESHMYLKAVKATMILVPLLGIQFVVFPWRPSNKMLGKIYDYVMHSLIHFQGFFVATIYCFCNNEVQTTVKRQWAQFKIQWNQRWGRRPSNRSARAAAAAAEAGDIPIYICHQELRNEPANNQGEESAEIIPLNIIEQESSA
T1 sequence (looked up) 2: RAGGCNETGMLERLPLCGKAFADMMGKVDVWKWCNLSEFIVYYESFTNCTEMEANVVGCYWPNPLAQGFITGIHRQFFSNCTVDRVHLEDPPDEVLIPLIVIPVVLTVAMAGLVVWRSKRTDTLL

[2] = biological target: T2, human calcitonin (a) receptor (human, UniProt P30988 25-474); assay: cell-based or functional assay
T2 sequence (looked up): T1 sequence (looked up) 1

B1: N-alpha-[(S)-4-Carboxy-4-(17-carboxyheptadecanoylamino)butyryl]-His-[His1,Glu14,His17]-pramlintide (peptide)
peptide: {C18 diacid-γGlu}-HHCNTATCATQRLAEFLHHSSNNFGPILPPTNVGSNTY-NH2
modifications: disulfide 3-8
SMILES: CC[C@H](C)[C@H](NC(=O)[C@@H]1CCCN1C(=O)CNC(=O)[C@H](Cc1ccccc1)NC(=O)[C@H](CC(N)=O)NC(=O)[C@H](CC(N)=O)NC(=O)[C@H](CO)NC(=O)[C@H](CO)NC(=O)[C@H](Cc1c[nH]cn1)NC(=O)[C@H](Cc1c[nH]cn1)NC(=O)[C@H](CC(C)C)NC(=O)[C@H](Cc1ccccc1)NC(=O)[C@H](CCC(=O)O)NC(=O)[C@H](C)NC(=O)[C@H](CC(C)C)NC(=O)[C@H](CCCNC(=N)N)NC(=O)[C@H](CCC(N)=O)NC(=O)[C@@H](NC(=O)[C@H](C)NC(=O)[C@@H]1CSSC[C@H](NC(=O)[C@H](Cc2c[nH]cn2)NC(=O)[C@H](Cc2c[nH]cn2)NC(=O)CC[C@H](NC(=O)CCCCCCCCCCCCCCCCC(=O)O)C(=O)O)C(=O)N[C@@H](CC(N)=O)C(=O)N[C@@H]([C@@H](C)O)C(=O)N[C@@H](C)C(=O)N[C@@H]([C@@H](C)O)C(=O)N1)[C@@H](C)O)C(=O)N[C@@H](CC(C)C)C(=O)N1CCC[C@H]1C(=O)N1CCC[C@H]1C(=O)N[C@H](C(=O)N[C@@H](CC(N)=O)C(=O)N[C@H](C(=O)NCC(=O)N[C@@H](CO)C(=O)N[C@@H](CC(N)=O)C(=O)N[C@H](C(=O)N[C@@H](Cc1ccc(O)cc1)C(N)=O)[C@@H](C)O)C(C)C)[C@@H](C)O
In the case of B1, the “Amylin receptor human EC50” value [1] is reported as 0.059 nM and the “CTa receptor human EC50” value [2] is reported as 0.258 nM.

B2: N-alpha-[(S)-4-Carboxy-4-(17-carboxyheptadecanoylamino)butyryl]-[Glu14,Arg17]-pramlintide (peptide)
peptide: {C18 diacid-γGlu}-KCNTATCATQRLAEFLRHSSNNFGPILPPTNVGSNTY-NH2
modifications: disulfide 2-7
SMILES: CC[C@H](C)[C@H](NC(=O)[C@@H]1CCCN1C(=O)CNC(=O)[C@H](Cc1ccccc1)NC(=O)[C@H](CC(N)=O)NC(=O)[C@H](CC(N)=O)NC(=O)[C@H](CO)NC(=O)[C@H](CO)NC(=O)[C@H](Cc1c[nH]cn1)NC(=O)[C@H](CCCNC(=N)N)NC(=O)[C@H](CC(C)C)NC(=O)[C@H](Cc1ccccc1)NC(=O)[C@H](CCC(=O)O)NC(=O)[C@H](C)NC(=O)[C@H](CC(C)C)NC(=O)[C@H](CCCNC(=N)N)NC(=O)[C@H](CCC(N)=O)NC(=O)[C@@H](NC(=O)[C@H](C)NC(=O)[C@@H]1CSSC[C@H](NC(=O)[C@H](CCCCN)NC(=O)CC[C@H](NC(=O)CCCCCCCCCCCCCCCCC(=O)O)C(=O)O)C(=O)N[C@@H](CC(N)=O)C(=O)N[C@@H]([C@@H](C)O)C(=O)N[C@@H](C)C(=O)N[C@@H]([C@@H](C)O)C(=O)N1)[C@@H](C)O)C(=O)N[C@@H](CC(C)C)C(=O)N1CCC[C@H]1C(=O)N1CCC[C@H]1C(=O)N[C@H](C(=O)N[C@@H](CC(N)=O)C(=O)N[C@H](C(=O)NCC(=O)N[C@@H](CO)C(=O)N[C@@H](CC(N)=O)C(=O)N[C@H](C(=O)N[C@@H](Cc1ccc(O)cc1)C(N)=O)[C@@H](C)O)C(C)C)[C@@H](C)O
B2 was tested, and the “Amylin receptor human EC50” value [1] was 0.061 nM and the “CTa receptor human EC50” value [2] was 0.6 nM.

B3: N-alpha-[(S)-4-Carboxy-4-(19-carboxynonadecanoylamino)butyryl]-[Glu14,Arg17]-pramlintide (peptide)
peptide: {C20 diacid-γGlu}-KCNTATCATQRLAEFLRHSSNNFGPILPPTNVGSNTY-NH2
modifications: disulfide 2-7
SMILES: CC[C@H](C)[C@H](NC(=O)[C@@H]1CCCN1C(=O)CNC(=O)[C@H](Cc1ccccc1)NC(=O)[C@H](CC(N)=O)NC(=O)[C@H](CC(N)=O)NC(=O)[C@H](CO)NC(=O)[C@H](CO)NC(=O)[C@H](Cc1c[nH]cn1)NC(=O)[C@H](CCCNC(=N)N)NC(=O)[C@H](CC(C)C)NC(=O)[C@H](Cc1ccccc1)NC(=O)[C@H](CCC(=O)O)NC(=O)[C@H](C)NC(=O)[C@H](CC(C)C)NC(=O)[C@H](CCCNC(=N)N)NC(=O)[C@H](CCC(N)=O)NC(=O)[C@@H](NC(=O)[C@H](C)NC(=O)[C@@H]1CSSC[C@H](NC(=O)[C@H](CCCCN)NC(=O)CC[C@H](NC(=O)CCCCCCCCCCCCCCCCCCC(=O)O)C(=O)O)C(=O)N[C@@H](CC(N)=O)C(=O)N[C@@H]([C@@H](C)O)C(=O)N[C@@H](C)C(=O)N[C@@H]([C@@H](C)O)C(=O)N1)[C@@H](C)O)C(=O)N[C@@H](CC(C)C)C(=O)N1CCC[C@H]1C(=O)N1CCC[C@H]1C(=O)N[C@H](C(=O)N[C@@H](CC(N)=O)C(=O)N[C@H](C(=O)NCC(=O)N[C@@H](CO)C(=O)N[C@@H](CC(N)=O)C(=O)N[C@H](C(=O)N[C@@H](Cc1ccc(O)cc1)C(N)=O)[C@@H](C)O)C(C)C)[C@@H](C)O
For B3, the “Amylin receptor human EC50” value [1] was 0.101 nM and the “CTa receptor human EC50” value [2] was 0.459 nM.

B4: N-alpha-[(S)-4-Carboxy-4-(17-carboxyheptadecanoylamino)butyryl]-Glu-[Glu14,His17,His35]-pramlintide (peptide)
peptide: {C18 diacid-γGlu}-EKCNTATCATQRLAEFLHHSSNNFGPILPPTNVGSHTY-NH2
modifications: disulfide 3-8
SMILES: CC[C@H](C)[C@H](NC(=O)[C@@H]1CCCN1C(=O)CNC(=O)[C@H](Cc1ccccc1)NC(=O)[C@H](CC(N)=O)NC(=O)[C@H](CC(N)=O)NC(=O)[C@H](CO)NC(=O)[C@H](CO)NC(=O)[C@H](Cc1c[nH]cn1)NC(=O)[C@H](Cc1c[nH]cn1)NC(=O)[C@H](CC(C)C)NC(=O)[C@H](Cc1ccccc1)NC(=O)[C@H](CCC(=O)O)NC(=O)[C@H](C)NC(=O)[C@H](CC(C)C)NC(=O)[C@H](CCCNC(=N)N)NC(=O)[C@H](CCC(N)=O)NC(=O)[C@@H](NC(=O)[C@H](C)NC(=O)[C@@H]1CSSC[C@H](NC(=O)[C@H](CCCCN)NC(=O)[C@H](CCC(=O)O)NC(=O)CC[C@H](NC(=O)CCCCCCCCCCCCCCCCC(=O)O)C(=O)O)C(=O)N[C@@H](CC(N)=O)C(=O)N[C@@H]([C@@H](C)O)C(=O)N[C@@H](C)C(=O)N[C@@H]([C@@H](C)O)C(=O)N1)[C@@H](C)O)C(=O)N[C@@H](CC(C)C)C(=O)N1CCC[C@H]1C(=O)N1CCC[C@H]1C(=O)N[C@H](C(=O)N[C@@H](CC(N)=O)C(=O)N[C@H](C(=O)NCC(=O)N[C@@H](CO)C(=O)N[C@@H](Cc1c[nH]cn1)C(=O)N[C@H](C(=O)N[C@@H](Cc1ccc(O)cc1)C(N)=O)[C@@H](C)O)C(C)C)[C@@H](C)O
For B4, the “Amylin receptor human EC50” value [1] was 0.102 nM and the “CTa receptor human EC50” value [2] was 0.169 nM.

B5: N-alpha-[(S)-4-Carboxy-4-(19-carboxynonadecanoylamino)butyryl]-[Glu10,Glu14,His17]-pramlintide (peptide)
peptide: {C20 diacid-γGlu}-KCNTATCATERLAEFLHHSSNNFGPILPPTNVGSNTY-NH2
modifications: disulfide 2-7
SMILES: CC[C@H](C)[C@H](NC(=O)[C@@H]1CCCN1C(=O)CNC(=O)[C@H](Cc1ccccc1)NC(=O)[C@H](CC(N)=O)NC(=O)[C@H](CC(N)=O)NC(=O)[C@H](CO)NC(=O)[C@H](CO)NC(=O)[C@H](Cc1c[nH]cn1)NC(=O)[C@H](Cc1c[nH]cn1)NC(=O)[C@H](CC(C)C)NC(=O)[C@H](Cc1ccccc1)NC(=O)[C@H](CCC(=O)O)NC(=O)[C@H](C)NC(=O)[C@H](CC(C)C)NC(=O)[C@H](CCCNC(=N)N)NC(=O)[C@H](CCC(=O)O)NC(=O)[C@@H](NC(=O)[C@H](C)NC(=O)[C@@H]1CSSC[C@H](NC(=O)[C@H](CCCCN)NC(=O)CC[C@H](NC(=O)CCCCCCCCCCCCCCCCCCC(=O)O)C(=O)O)C(=O)N[C@@H](CC(N)=O)C(=O)N[C@@H]([C@@H](C)O)C(=O)N[C@@H](C)C(=O)N[C@@H]([C@@H](C)O)C(=O)N1)[C@@H](C)O)C(=O)N[C@@H](CC(C)C)C(=O)N1CCC[C@H]1C(=O)N1CCC[C@H]1C(=O)N[C@H](C(=O)N[C@@H](CC(N)=O)C(=O)N[C@H](C(=O)NCC(=O)N[C@@H](CO)C(=O)N[C@@H](CC(N)=O)C(=O)N[C@H](C(=O)N[C@@H](Cc1ccc(O)cc1)C(N)=O)[C@@H](C)O)C(C)C)[C@@H](C)O
For B5, the “Amylin receptor human EC50” value [1] was 0.13 nM and the “CTa receptor human EC50” value [2] was 0.2 nM.

B6: N-alpha-{(S)-4-Carboxy-4-[(S)-4-Carboxy-4-(17-carboxyheptadecanoylamino)butyrylamino]butyryl}-[des1,Glu14,His17]-pramlintide (peptide)
peptide: {C18 diacid-γGlu-γGlu}-CNTATCATQRLAEFLHHSSNNFGPILPPTNVGSNTY-NH2
modifications: disulfide 1-6
SMILES: CC[C@H](C)[C@H](NC(=O)[C@@H]1CCCN1C(=O)CNC(=O)[C@H](Cc1ccccc1)NC(=O)[C@H](CC(N)=O)NC(=O)[C@H](CC(N)=O)NC(=O)[C@H](CO)NC(=O)[C@H](CO)NC(=O)[C@H](Cc1c[nH]cn1)NC(=O)[C@H](Cc1c[nH]cn1)NC(=O)[C@H](CC(C)C)NC(=O)[C@H](Cc1ccccc1)NC(=O)[C@H](CCC(=O)O)NC(=O)[C@H](C)NC(=O)[C@H](CC(C)C)NC(=O)[C@H](CCCNC(=N)N)NC(=O)[C@H](CCC(N)=O)NC(=O)[C@@H](NC(=O)[C@H](C)NC(=O)[C@@H]1CSSC[C@H](NC(=O)CC[C@H](NC(=O)CC[C@H](NC(=O)CCCCCCCCCCCCCCCCC(=O)O)C(=O)O)C(=O)O)C(=O)N[C@@H](CC(N)=O)C(=O)N[C@@H]([C@@H](C)O)C(=O)N[C@@H](C)C(=O)N[C@@H]([C@@H](C)O)C(=O)N1)[C@@H](C)O)C(=O)N[C@@H](CC(C)C)C(=O)N1CCC[C@H]1C(=O)N1CCC[C@H]1C(=O)N[C@H](C(=O)N[C@@H](CC(N)=O)C(=O)N[C@H](C(=O)NCC(=O)N[C@@H](CO)C(=O)N[C@@H](CC(N)=O)C(=O)N[C@H](C(=O)N[C@@H](Cc1ccc(O)cc1)C(N)=O)[C@@H](C)O)C(C)C)[C@@H](C)O
B6 was tested, and the “Amylin receptor human EC50” value [1] was 0.151 nM and the “CTa receptor human EC50” value [2] was 0.527 nM.
